Measured values as given in the DeepSol protein solubility set.

Assay: soluble on expression in E. coli; label from the status in PepcDB or PDB records

Soluble on expression in E. coli, not soluble:
MGSDKIHHHHHHMKNKAESLASSSASILTLGLGWFPKNPGGLERYMYELTHKLAANKDQIELCGVGLPEAERNSPIKLTNLASPDSAIWQRLWSIRTNFQKTRTNKPDAINLHFALYSFPLLDILPKGVPVTFNFHGPWASESQQEVVNKNLSLLIKHHLIEKNTYNHCDRFIVLSKAFGKILHDKYQVPWSKINIIPGGVDINWFQPNLSRQDACKQLGWPNNRRIIFTSRRLVHRTGVDKLLKALAIIKPRIPDVWLAIAGRGHIQAALQQQATELGLDDNVKFLGFLPDEQLPIAYQAAELTIMPSQSFEGFGLVIVESLACGTPVLCTPVGGMPEILSEFSPDLITTSTEASAIAEKLEQVLLGNIPIPSREACRHYAVTHYDWNQIAQQVRNVLLN
MGSDKIHHHHHHMKNLFLFCRAGFEKECAAEIQQRAGELNVGGFVKANNNDAYVVYQCFEEDAADTLVKQLPLDSLIFARQMFAASDLLVDLPESDRISPIVAALSDVSKAGEVRVETPDTNEAKELSAFCRKFTVPLRQHLKKSGSLLAQENPKRPIIHVCFIGPGRAYVGYSYSNNSSPHFMGIPRLKMAADAPSRSSLKLDEAFGQFVPKEEQEERIRSGMNAVDLGACPGGWTYQLVRRGMFVSAVDNGPMDEKLMETGQVKHYREDGFRFEPQRKNIYWLVCDMVRPSSL
MGSDKIHHHHHHMKNLIFKDSQFEFQTLRVLGSSASGAADIGEVVETAQRIKEGDFKSWCDEWSKTAKSLEESAEESYSKGHFISAKKAYLRAANYYRTAEFYLHENPNNPIIGELYEKSLRCFSYVMKLNKPAIEAVKIPYENTFLPAHYYKLQNSNGKAPVLIAMTGYDGTKEEFYGLAMTALEHGMNFLTFEGPGQGEAVRKQKLFFRYDYEKVVTPVIDYVISRKEVDQAKIILWGESLGGYLAPRAAAFEHRLAACVANSGVYDFFGGILRELGNNSREEFFSAARINPEEFDKNIYSIAKLNSKVRWGIYHGMYVFGVNSPHEYILKAEDFYLKDIAEKIKCPTLVIDSDNDGILGGQSKPLYDVLRCKKEYMFFTSENGAGYHCQVGAKLIGWERILSWIEDIIK
MGSDKIHHHHHHMKNRIIEKIENALQTLKNGGLIIITDDENRESEGDMVGLAEYVTPKAVNTMVTNARGLLCVPMSAEIAQKLGLSPMVTNAEDAFGTAFTISTDAKTTKTGISAFDRAKTIQKLADPQAKFSEFYHPGHVFPLIAEEGGVLARGGHTEAAVDLAKLAGVRPVAYITEVLKKDGTMARRNTLKSLAEGMQMPLLTIEEIKIYRYMKDAGIVKSVAKVHLPTKYGEFEMEAFDTGAGQEPTLLLTKGSLSEVQPLLLRIHSECLTGDIFGSKRCDCGEQLERSLKEIQSRGRGALLYLRQEGRGIGLANKLKAYELQEQGMDTVEANLKLGFQADERHYGVAAAILRKKGITKVNLLTNNPDKIKQLETLGIKVEERVTIQIPARPENRSYLKVKKEKMHHLLKGMD
MGSDKIHHHHHHMKNTEIRKNIFPVGFYDDIHPDFSVNFQMNRCYTMTNDDVMLKEMREISPSIHNYEEFIEKFLELYNKALNEGHKLRAAYYLRTAEFYMTADHPQKQNYRKQFISLMQEYFNISDEQPYKVPYENGFLPAYRFTSEAPKGTIVMFGGFDSYVEEMFKMALFLKEAGYDVVFFDGPGQGSALEDYKIPMTHEWEKPVKSILDYFELDDVTLLGISLGGYLTVRAAAFEKRVHRVIADDILSNFYEVVLNTLPSQLKEKVNSLMSDGNEQEVNILFKDLMKKSLMVEWAINQGMHITGSKTPYEFLNKILLYNTSKISEKLEQDVLLMAAQEDHYIPLNQFFDQSKSLINVRSLTTRMFTRKETAQNHCQSGNLGLAFEVIANWIEQIQK
MGSDKIHHHHHHMKPALKSTPALRITLVCNTAWAIYTYRQGLIRMLVGRGVDVTVLAPRDRTFELLVAMGCRCIELPVASKGTSPRDDLRTLYALYRQYRSIRPHVVFHYTIKPNIYGSIAARLAGVQSVAVTTGLGYVFIQQSRAAQVAKKLYRFAFRFPREIWFLNRDDQAAFVEQNLLVHPERARLLHGEGVDLEQFAFTPLPERADYRFVLIGRLLWDKGVGEYVEAARRLRERYPHARFQLLGPVGVDNPSAITREEVAAWEREGIIEYLGEAHDVRPFIAEADCVVLPSYREGVPRTLMEASAMGRPIVTTDVPGCREVVADGVNGLLCEARNAASLAATLARMLDMSGAERRALAERGRKKVAEEFDERVVVEMYKDLVQKMTGVLL
MGSDKIHHHHHHMKPSIYSLTRNDLIAWTIEHGEKKFRATQIWDWLYRKRVQSFEEMTNLSKDFIALLNENFLVNPLKQRIVQESADGTVKYLFELPDGMLIETVLMRQHYGLSVCVTTQVGCNIGCTFCASGLIKKQRDLNNGEITAQIMLVQKYFDERGQGERISHVVVMGIGEPFDNYDNVLKFLRTINDDNGLAIGARHITVSTSGLAHKIRDFANEGVQVNLAVSLHAPNNELRSSIMRINRSFPLEKLFAAIEYYIETTNRRVTFEYIMLNGVNDSPENAQELADLTKKIRKLSYVNLIPYNPVTEHDQYSRSPKERVDAFYDVLKKNGVNCVVRQEHGTDIDAACGQLRSNTMKRDREKATAGTAQ
MGSDKIHHHHHHMKQKTIHIENLSIGYLGKTDVKVVADRINAGINCGELTCLLGANGVGKSTLLRTLSAFQPKLGGKIEIVGKEIDAYTDKELSTVISVVLTEKCDIRNMTVHELVGLGRSPYTDFWGTLRGEDKEVVERSIALVKIQNLAHRMVHTLSDGERQKVMIAKALAQETPVIFLDEPTAFLDFPSKVEMMQLLHRLSRQTNKTIFLSTHDLELALQIADKIWLMDKMNGVTIGTPEDLSLSGKLSSFFARKGIVFDLETGLFRVDNEYTSQIRLVGHGQKYAMVRKALQRNGILANRTVESDTYIETGDLKDGNGFILHPQEGEAVTLNSIEELLERLQAGSAERAV
MGSDKIHHHHHHMKQLPLDIIPPPPTLSNFVTGRNAELLQTLDNLLMMRKHERFVYIWGGTGCGKSHLLQGVASACKRNDMNTLYFACGERTSFANGSEADCVMVDDVDRLGADAQIGLFHLYNRIRDEGQAFLLVSGSVAPTQLKLRADLLTRLAWGLVYEVHELTDEEKMEAMKSHASSRGLALPQEVCDYLLRHERRDLTSLMAKLNALDKYSLASHRKITVPLVRELLQAAS
MGSDKIHHHHHHMKQMNVVLIGGGTGLSVLARGLREFPIDITAIVTVADNGGSTGKIRDVMDIPAPGDIRNVIAALSDSESILTQLFQYRFGENQVDGHSLGNLVIAGMTNITNDFGHAIKELSKVLNIKGQVIPSTNASVQLNAVMEDGEIVHGETNIPKTHKKIDRVFLEPSDVEPMNEAIEALEQADLIVLGPGSLYTSVISNLCVKGISEALLRTSAPKLYVSNVMTQPGETDNYDVKEHIDALTRQVGEPFIDFVICSSESYSKDVLQRYEEKNSKPVAVHKEQLKDSGIRVLTASNLVEISNEHYVRHNTKVLSKMIYELALELTSTIRFTPSDKKK
MGSDKIHHHHHHMKRQAKIEIQNALVDLMAEYPFQEISTKMICAYCNINRSTFYDYYKDKFDLLDTINSKHKEKFQFLLSALHHNFENIKQDKLKLYKFFIIIAKYIKHNEQFFKDILVTYPMKTLFIDYINLARDYYQQIMNDYSTTVTNKQLYVTYIIGGQAGVFINWLSNGCNESPEEVADILLANTIKLQIQ
MGSDKIHHHHHHMKRVQNLLVAVGLSPNYHRRTYPSGKKSLVVRFYATLTPGLEDVAAKEVESFGCKVEEIRERRGRIFFSGEKSAIPLLNHFSRTLERLNVLLLRCEVEGLDDIYAAVKGLDFSFVKGKSFAIRSLRVGEHDFTSMDIARVAGQAVIDSFMESYGERLKVNLNQPDVIIRVELVDSELFVGVDTTGDDAMHKRWWRVYNHPAHLNAAIACGMLRIADWKVDESLIDPMCGSGTIPIEAALMVRNVPNLRDFAYKKLCEWELAFEPNEVRLKLYGMEKFRKHLVGAIRNAVNAGVADTIEFRQGDATEMTGEYDVIITNPPYGLRIHRKGAIERLYHSFARAAKRCMNQNSRLVIITAEHRVFANAAEEAGLQCTHERFVKYGGLLTKIMVFMI
